Measurements as given in article PMC7710607.

Target: ACSL1 (UniProt P41216)
Assay: GST-TBK1 binding to bead-bound flag-ACSL1
Details: reference: ΔC (1-657) wild type; sites S172

## mouse TBK1 (mTBK1, GST-TBK1) C-terminal truncated, 1-657 (from UniProt Q9WUN2) ΔC (1-657) S172A
  binding against the reference: stronger
